The assay addresses T1, TplEi (Pseudomonas aeruginosa, UniProt Q9I3K3).
T1 sequence: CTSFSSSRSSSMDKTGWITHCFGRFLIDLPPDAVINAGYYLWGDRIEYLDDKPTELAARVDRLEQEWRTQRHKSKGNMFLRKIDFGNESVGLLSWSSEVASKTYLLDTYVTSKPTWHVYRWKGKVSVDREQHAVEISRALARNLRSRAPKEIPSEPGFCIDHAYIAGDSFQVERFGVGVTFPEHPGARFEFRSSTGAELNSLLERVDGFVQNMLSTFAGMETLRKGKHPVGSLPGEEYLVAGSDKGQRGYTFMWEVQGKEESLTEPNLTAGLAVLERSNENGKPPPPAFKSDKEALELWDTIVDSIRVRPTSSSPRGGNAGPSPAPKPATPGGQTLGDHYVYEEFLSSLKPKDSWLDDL
The experiment in a line: ITC. The following applies: both partners purified.

B1: B peptides (“L” peptide, TplE 82-108 plus EQ) (peptide)
peptide: Ac-DDLFASIGALWTWAWRGPKARQELLKAEQ-NH2
notes: source: synthetic peptide (solid-phase FMOC, Scilight Biotechnology LLC, HPLC purified)
The term Kd denotes the constant that tells how readily two partners part at equilibrium. Low values mean tighter binding, high ones weaker binding. On to B1, for which binding was characterised by a dissociation constant (Kd) of 478 nM.

B2: A peptides (“L” peptide, TplE 82-108 plus EQVEVDD) (peptide)
peptide: Ac-DDLFASIGALWTWAWRGPKARQELLKAEQVEVDD-NH2
notes: as for B1
For B2, the dissociation constant Kd is around 125 nM.

Values taken from publication PMC5611513 (Frontiers in Cellular and Infection Microbiology, 2017).
